The numbers were not newly measured in publication PMC4485553, which cites them from elsewhere.

A word on the KD: it is the concentration at which binding is half-saturated.

The data set deals with human IgG1, wild type (UniProt P01857). Kind of data set: not stated in this review. As to conditions: pH 6.

For the substance FcRn (neonatal Fc receptor), mouse, the KD was 32 nM.
